Substrate: O=CO
Experiment: purified protein
Settings: 1 mM benzyl viologen, pH 7.5, 25 °C, anaerobic, buffer 50 mM phosphate or 25 mM MES/TAPS/HEPES/K acetate (Figure 3 legend)

B1: EcFDH-H (FDH) (Escherichia coli K-12) (protein)
chain: MKKVVTVCPYCASGCKINLVVDNGKIVRAEAAQGKTNQGTLCLKGYYGWDFINDTQILTPRLKTPMIRRQRGGKLEPVSWDEALNYVAERLSAIKEKYGPDAIQTTGSSRGTGNETNYVMQKFARAVIGTNNVDCCARVUHGPSVAGLHQSVGNGAMSNAINEIDNTDLVFVFGYNPADSHPIVANHVINAKRNGAKIIVCDPRKIETARIADMHIALKNGSNIALLNAMGHVIIEENLYDKAFVASRTEGFEEYRKIVEGYTPESVEDITGVSASEIRQAARMYAQAKSAAILWGMGVTQFYQGVETVRSLTSLAMLTGNLGKPHAGVNPVRGQNNVQGACDMGALPDTYPGYQYVKDPANREKFAKAWGVESLPAHTGYRISELPHRAAHGEVRAAYIMGEDPLQTDAELSAVRKAFEDLELVIVQDIFMTKTASAADVILPSTSWGEHEGVFTAADRGFQRFFKAVEPKWDLKTDWQIISEIATRMGYPMHYNNTQEIWDELRHLCPDFYGATYEKMGELGFIQWPCRDTSDADQGTSYLFKEKFDTPNGLAQFFTCDWVAPIDKLTDEYPMVLSTVREVGHYSCRSMTGNCAALAALADEPGYAQINTEDAKRLGIEDEALVWVHSRKGKIITRAQVSDRPNKGAIYMTYQWWIGACNELVTENLSPITKTPEYKYCAVRVEPIADQRAAEQYVIDEYNKLKTRLREAALA
B1 gave a Km (labelled compound) of 158 ± 8 µM and a Km (two highest formate points neglected in fit) of 58 ± 8 µM.
